Source: publication PMC12933331, “A Cryptic Pocket Allosterically Modulates Oligosaccharide Binding to DC-SIGN” (JACS Au, 2026)

Experiments:
[1] = biological target: T1, DC-SIGN extracellular domain (ECD), wildtype, Q9NNX6; test: dynamic light scattering; purified ECDs; tetrameric state judged from mannan affinity chromatography, DLS and DSF together; conditions: remark: other sources report otherwise
T1 chain: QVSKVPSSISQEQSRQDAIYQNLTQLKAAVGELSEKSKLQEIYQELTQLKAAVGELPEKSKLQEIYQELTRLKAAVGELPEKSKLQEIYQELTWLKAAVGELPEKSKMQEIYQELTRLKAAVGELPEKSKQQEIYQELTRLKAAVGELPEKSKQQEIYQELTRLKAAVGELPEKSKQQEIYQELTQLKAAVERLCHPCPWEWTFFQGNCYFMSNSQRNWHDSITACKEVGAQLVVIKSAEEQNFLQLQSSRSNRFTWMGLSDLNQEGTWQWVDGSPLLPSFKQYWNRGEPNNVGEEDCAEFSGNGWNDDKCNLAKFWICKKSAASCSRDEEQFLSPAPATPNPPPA

[2] = biological target: T1, DC-SIGN extracellular domain (ECD), …; test: cryo-EM structure; DC-SIGN ECD, single particles; low resolution map, three of the four CRDs visibly resolved; conditions: remark: other sources report otherwise

stoichiometry N [1]: 4
stoichiometry N [2]: 4
B1: DC-SIGN extracellular domain (ECD), wildtype, Q9NNX6 59-404 (receptor)
chain: QVSKVPSSISQEQSRQDAIYQNLTQLKAAVGELSEKSKLQEIYQELTQLKAAVGELPEKSKLQEIYQELTRLKAAVGELPEKSKLQEIYQELTWLKAAVGELPEKSKMQEIYQELTRLKAAVGELPEKSKQQEIYQELTRLKAAVGELPEKSKQQEIYQELTRLKAAVGELPEKSKQQEIYQELTQLKAAVERLCHPCPWEWTFFQGNCYFMSNSQRNWHDSITACKEVGAQLVVIKSAEEQNFLQLQSSRSNRFTWMGLSDLNQEGTWQWVDGSPLLPSFKQYWNRGEPNNVGEEDCAEFSGNGWNDDKCNLAKFWICKKSAASCSRDEEQFLSPAPATPNPPPA
